The record followed here is patent publication US20090148861A1 (SALK INSTITUTE, published 2009).

In data set [1] the target is GIRK2 L257A mutant channel. The data set is described as follows: cell-based or functional assay.
For data set [2], the target named is GIRK2 L257W mutant channel. The data set is described as follows: cell-based or functional assay.
The target in data set [3] is GIRK2 L257Y mutant channel. Kind of data set: cell-based or functional assay.
For data set [4], the target named is GIRK2 Y349W mutant channel. The data set is described as follows: cell-based or functional assay.
The target of data set [5] is GIRK2c channel, wild type. The data set is described as follows: cell-based or functional assay.
The target of data set [6] is GIRK4 S143T mutant channel. The data set is described as follows: cell-based or functional assay.
The target of data set [7] is GIRK4* L252A mutant channel. Kind of data set: cell-based or functional assay.
For data set [8], the target named is GIRK4* L252W mutant channel. Kind of data set: cell-based or functional assay.
Data set [9] concerns the target GIRK4* L252Y mutant channel. Kind of data set: cell-based or functional assay.
Data set [10] deals with the molecule itself. The data set is described as follows: X-ray crystal structure at 2.0 A; homotetramer.
Data set [11] deals with the molecule itself. Kind of data set: S200 Sepharose size chromatography; self-association of the cytoplasmic domains into a tetramer. The protocol:
(§1) Kir2.1 mutants were grown in Terrific Broth at 37 degrees C. to the OD600 of 0.6, then induced with 0.5 mM IPTG for 3 hours prior to harvesting. Cells were lysed in 0.5M NaCl, 20 mM Tris-HCl pH 8.5, 10% glycerol, 7 mM beta-mercaptoethanol, 0.1 mM PMSF, 10 mM imidazole and 0.5 mg lysozyme per 100 ml of lysate. The lysate was sonicated and spun at 94,000 G for 45 minutes. The supernatant was loaded on a 2 ml-packed nickel affinity column (Qiagen), washed with 5 ml of lysis buffer without PMSF, and then eluted with lysis buffer with 250 mM imidazole. Thrombin was added to the eluted fraction and it was dialyzed against the sizing column buffer, 150 mM NaCl, 5 mM Tris-HCl pH 8.5, 2 mM DTT. Kir2.1 was then purified by S200 Sepharose chromatography and concentrated to 10 mg/ml with 10 mM DTT. Kir2.1 proteins were loaded on a G4000PWXL HPLC column (TOSOH) equilibrated in 150 mM NaCl, 5 mM Tris-HCl 8.5, 2 mM DTT. Molecular weight (MW) of the tetramer complex was calculated by Minidawn static light scattering requiring the use of the extinction coefficient of the monomer. The extinction coefficient was derived from the primary sequence of the protein. […]

Data set [12] deals with the molecule itself. The data set is described as follows: size chromatography of the cytoplasmic domains; homotetramer. The protocol:
as §1

Data set [13] concerns the molecule itself. The data set is described as follows: sizing column; self-association into a tetramer. Here is the method:
Kir2.1 mutants were grown in Terrific Broth at 37 degrees C. to the OD600 of 0.6, then induced with 0.5 mM IPTG for 3 hours prior to harvesting. Cells were lysed in 0.5M NaCl, 20 mM Tris-HCl pH 8.5, 10% glycerol, 7 mM beta-mercaptoethanol, 0.1 mM PMSF, 10 mM imidazole and 0.5 mg lysozyme per 100 ml of lysate. The lysate was sonicated and spun at 94,000 G for 45 minutes. The supernatant was loaded on a 2 ml-packed nickel affinity column (Qiagen), washed with 5 ml of lysis buffer without PMSF, and then eluted with lysis buffer with 250 mM imidazole. Thrombin was added to the eluted fraction and it was dialyzed against the sizing column buffer, 150 mM NaCl, 5 mM Tris-HCl pH 8.5, 2 mM DTT. Kir2.1 was then purified by S200 Sepharose chromatography and concentrated to 10 mg/ml with 10 mM DTT. Kir2.1 proteins were loaded on a G4000PWXL HPLC column (TOSOH) equilibrated in 150 mM NaCl, 5 mM Tris-HCl 8.5, 2 mM DTT. Molecular weight (MW) of the tetramer complex was calculated by Minidawn static light scattering requiring the use of the extinction coefficient of the monomer. The extinction coefficient was derived from the primary sequence of the protein.
To understand the nature of the mildly-aggregating R218Q, it was reasoned that changing the Thr309 to a positive charge residue would restore a polar interaction similar to the native one present in Kir2.1 between Arg218 and Thr309 (FIG. 2C). […]

In the case of G-protein beta-gamma subunits, the percent change from basal current on Carbachol, whole-cell patch clamp in data set [1] came out at 36%; in [2] it was 12%; in data set [3], 38%; in data set [4], 56%. The molecule also had a percent change from Ba++ sensitive basal current on 5 uM Carbachol (M2R co-transfected), whole-cell patch clamp in [5] of 928%. In [6], the Carb activation as percent of basal current, whole-cell patch clamp (% of basal current) is 231. Also, the values for the Carb activation as percent of basal current, whole-cell patch clamp in data set [7], in data set [8] and in data set [9] were 51%, 23% and 110%, respectively.

B1: Kir2.1S-R218Q/T309K, N-terminal (44-64) fused to C-terminal (189-371) of mouse Kir2.1 (other, UniProt P35561 44-64, looked up)
chain: RSRFVKKDGHCNVQFINVGEKRNETLVFSHNAVIAMRDGKLCLMWRVGNLQKSHLVEAHVRAQLLKSRITSEGEYIPLDQIDINVGFDSGIDRIFLVSPITIVHEIDEDSPLYDLSKQDIDNADFEIVVILEGMVEATAMTKQCRSSYLANEILWGHRYEPVLFEEKHYYKVDYSRFHKTYEVPNTPLCSARDLAEKKYILSNA
notes: range 44-64;range 189-371; Crystallised form (2.0 A, space group C2, one tetramer per asymmetric unit); also called R218Q/T309KS; R218Q/T309Ks
With B1, in [10], the binding result is “binds”.

B2: Kir2.1L-E303K (other, mouse, UniProt P35561 44-64, looked up)
chain: RSRFVKKDGHCNVQFINVGEKRNETLVFSHNAVIAMRDGKLCLMWRVGNLRKSHLVEAHVRAQLLKSRITSEGEYIPLDQIDINVGFDSGIDRIFLVSPITIVHEIDEDSPLYDLSKQDIDNADFEIVVILEGMVKATAMTTQCRSSYLANEILWGHRYEPVLFEEKHYYKVDYSRFHKTYEVPNTPLCSARDLAEKKYILSNANSFCYENEVALTSKEEEEDSENGVPESTSTDSPPGIDLHNQASVPLEPRPLRRESEI
notes: range 44-64;range 189-428; Same construct as Kir2.1L; also called E303KL
For the molecule B2, the binding result in data set [11] was “binds”.

B3: Kir2.1L-G300V (other, mouse, UniProt P35561 44-64, looked up)
chain: RSRFVKKDGHCNVQFINVGEKRNETLVFSHNAVIAMRDGKLCLMWRVGNLRKSHLVEAHVRAQLLKSRITSEGEYIPLDQIDINVGFDSGIDRIFLVSPITIVHEIDEDSPLYDLSKQDIDNADFEIVVILEVMVEATAMTTQCRSSYLANEILWGHRYEPVLFEEKHYYKVDYSRFHKTYEVPNTPLCSARDLAEKKYILSNANSFCYENEVALTSKEEEEDSENGVPESTSTDSPPGIDLHNQASVPLEPRPLRRESEI
notes: range 44-64;range 189-428; Same construct as Kir2.1L; also called G300VL
Consider B3, for which the binding result in data set [12] is “binds”.

B4: Kir2.1L-R218Q/T309K (other, mouse, UniProt P35561 44-64, looked up)
chain: RSRFVKKDGHCNVQFINVGEKRNETLVFSHNAVIAMRDGKLCLMWRVGNLQKSHLVEAHVRAQLLKSRITSEGEYIPLDQIDINVGFDSGIDRIFLVSPITIVHEIDEDSPLYDLSKQDIDNADFEIVVILEGMVEATAMTKQCRSSYLANEILWGHRYEPVLFEEKHYYKVDYSRFHKTYEVPNTPLCSARDLAEKKYILSNANSFCYENEVALTSKEEEEDSENGVPESTSTDSPPGIDLHNQASVPLEPRPLRRESEI
notes: range 44-64;range 189-428; Same construct as Kir2.1L; also called R218Q/T309KL
With B4, the binding result in [13] is reported as “binds”.

B5: Kir2.1L-R218Q/T309R (other, mouse, UniProt P35561 44-64, looked up)
chain: RSRFVKKDGHCNVQFINVGEKRNETLVFSHNAVIAMRDGKLCLMWRVGNLQKSHLVEAHVRAQLLKSRITSEGEYIPLDQIDINVGFDSGIDRIFLVSPITIVHEIDEDSPLYDLSKQDIDNADFEIVVILEGMVEATAMTRQCRSSYLANEILWGHRYEPVLFEEKHYYKVDYSRFHKTYEVPNTPLCSARDLAEKKYILSNANSFCYENEVALTSKEEEEDSENGVPESTSTDSPPGIDLHNQASVPLEPRPLRRESEI
notes: range 44-64;range 189-428; Same construct as Kir2.1L; also called R218Q/T309RL
Consider B5, for which the binding result in [13] was “binds”.
